Data as given in PMC1933424.

How the values were obtained:
[1] = Western blot of yeast culture supernatant, 30°C; settings: glycan lost; control: wild-type full-length GA
[2] = extracellular GA activity of yeast cultures, 30°C; settings: glycan lost; control: wild-type full-length GA

Row | Protein | expression_or_secretion [1] | enzymatic_activity [2]
1 | Rhizopus oryzae glucoamylase (RoGA): Asn167 to Gln (protein) parent chain: MQLFNLPLKVSFFLVLSYFSLLVSAASIPSSASVQLDSYNYDGSTFSGKIYVKNIAYSKKVTVIYADGSDNWNNNGNTIAASYSAPISGSNYEYWTFSASINGIKEFYIKYEVSGKTYYDNNNSANYQVSTSKPTTTTATATTTTAPSTSTTTPPSRSEPATFPTGNSTISSWIKKQEGISRFAMLRNINPPGSATGFIAASLSTAGPDYYYAWTRDAALTSNVIVYEYNTTLSGNKTILNVLKDYVTFSVKTQSTSTVCNCLGEPKFNPDASGYTGAWGRPQNDGPAERATTFILFADSYLTQTKDASYVTGTLKPAIFKDLDYVVNVWSNGCFDLWEEVNGVHFYTLMVMRKGLLLGADFAKRNGDSTRASTYSSTASTIANKISSFWVSSNNWIQVSQSVTGGVSKKGLDVSTLLAANLGSVDDGFFTPGSEKILATAVAVEDSFASLYPINKNLPSYLGNSIGRYPEDTYNGNGNSQGNSWFLAVTGYAELYYRAIKEWIGNGGVTVSSISLPFFKKFDSSATSGKKYTVGTSDFNNLAQNIALAADRFLSTVQLHAHNNGSLAEEFDRTTGLSTGARDLTWSHASLITASYAKAGAPAA | decreases | –
2 | Rhizopus oryzae glucoamylase (RoGA): T165A (protein) parent chain: MQLFNLPLKVSFFLVLSYFSLLVSAASIPSSASVQLDSYNYDGSTFSGKIYVKNIAYSKKVTVIYADGSDNWNNNGNTIAASYSAPISGSNYEYWTFSASINGIKEFYIKYEVSGKTYYDNNNSANYQVSTSKPTTTTATATTTTAPSTSTTTPPSRSEPATFPTGNSTISSWIKKQEGISRFAMLRNINPPGSATGFIAASLSTAGPDYYYAWTRDAALTSNVIVYEYNTTLSGNKTILNVLKDYVTFSVKTQSTSTVCNCLGEPKFNPDASGYTGAWGRPQNDGPAERATTFILFADSYLTQTKDASYVTGTLKPAIFKDLDYVVNVWSNGCFDLWEEVNGVHFYTLMVMRKGLLLGADFAKRNGDSTRASTYSSTASTIANKISSFWVSSNNWIQVSQSVTGGVSKKGLDVSTLLAANLGSVDDGFFTPGSEKILATAVAVEDSFASLYPINKNLPSYLGNSIGRYPEDTYNGNGNSQGNSWFLAVTGYAELYYRAIKEWIGNGGVTVSSISLPFFKKFDSSATSGKKYTVGTSDFNNLAQNIALAADRFLSTVQLHAHNNGSLAEEFDRTTGLSTGARDLTWSHASLITASYAKAGAPAA | no change | no change
